Measurements published in paper PMC4010391, “Mammalian TBX1 Preferentially Binds and Regulates Downstream Targets Via a Tandem T-site Repeat”.

Molecular target: T1, GST-TBX1 T-box (Mus musculus, UniProt P70323 90-303)
T1 sequence: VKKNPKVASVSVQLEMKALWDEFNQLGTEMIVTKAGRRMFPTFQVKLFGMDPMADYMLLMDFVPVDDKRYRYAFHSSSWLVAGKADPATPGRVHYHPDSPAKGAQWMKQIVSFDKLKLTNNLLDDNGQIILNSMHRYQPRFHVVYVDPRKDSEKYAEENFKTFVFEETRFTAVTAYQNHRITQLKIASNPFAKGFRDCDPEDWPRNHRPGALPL
Test: EMSA; 6 h exposure; EMSA, 12.5 ul, GST-TBX1 5-25 ug, HEPES/MgCl2/KCl/DTT/EDTA/glycerol buffer (stock concentrations only, pH not given), 1 ug/ul poly(dI-dC), Ficoll, room temperature, 10 min + 10 min, 5% acrylamide gel
Settings: protein: recombinant; tags: N-terminal GST (pGEX4t3); chain copies: 2; label: 5'-32P

B1: Brachyury palindrome probe (Fig S1) (dsDNA)
DNA 1: CTAGATTTCACACCTAGGTGTGAAATCTAG
DNA 2: CTAGATTTCACACCTAGGTGTGAAATCTAG
B1: binds.
